# Data reported in US11278600B2, “Human alpha-galactosidase variants” (Codexis, Inc., priority 2014, dated 2022).
# B1: 403 (protein)
# chain: LDNGLARTPTMGWLHWERFMCNLDCQEEPDSCISEKLFMEMAERMVSEGWKDAGYEYLCIDDCWMAPQRDSEGRLQADPQRFPHGIRQLANYVHSKGLKLGIYADVGNKTCAGFPGSFGYYDIDAQTFADWGVDLLKFDGCYCDSLENLADGYKHMSLALNRTGRGIVYSCEWPLYMWPFQKPNYTEIRQYCNHWRNFADIDDSWKSIKSILDWTSRNQERIVDVAGPGGWNDPDMLVIGNFGLSWDQQVTQMALWAIMAAPLFMSNDLRHISPQAKALLQDKDVIAINQDPLGKQGYQLRKGDNFEVWERPLSGDAWAVAIINRQEIGGPRSYTIPVASLGKGVACNPACFITQLLPVKRQLGFYNWTSRLKSHINPTGTVLLQLENTMQMSLKDLL
# modifications: Synthetic Polypeptide sequence of Variant No. 403 of mature Human GLA
# B2: 407 (protein)
# chain: LDNGLARTPTMGWLHWERFMCNLDCQEEPDSCISEKLFMEMAERMVSEGWKDAGYEYLCIDDCWMAPQRDSEGRLQADPQRFPHGIRQLANYVHSKGLKLGIYADVGNKTCAGFPGSFGYYDIDAQTFADWGVDLLKFDGCYCDSLENLADGYKHMSHALNRTGRSIVYSCEWPLYMWPFQKPNYTEIRQYCNHWRNFADIDDSWKSIKSILDWTSRNQERIVDVAGPGGWNDPDMLVIGNFGLSWDQQVTQMALWAIMAAPLFMSNDLRHISPQAKALLQDKDVIAINQDPLGKQGYQLRKGDNFEVWERPLSGDAWAVAIINRQEIGGPRSYTIPVASLGKGVACNPACFITQLLPVKRQLGFYNWTSRLKSHINPTGTVLLQLENTMQMSLKDLL
# modifications: Synthetic Polypeptide sequence of Variant No. 407 of mature Human GLA
# B3: 404 (protein)
# chain: LDNGLARTPTMGWLHWERFMCNLDCQEEPDSCISEKLFMEMAERMVSEGWKDAGYEYLCIDDCWMAPQRDSEGRLQADPQRFPHGIRQLANYVHSKGLKLGIYADVGNKTCAGFPGSFGYYDIDAQTFADWGVDLLKFDGCYCDSLENLADGYKHMSLALNRTGRFIVYSCEWPLYMWPFQKPNYTEIRQYCNHWRNFADIDDSWKSIKSILDWTSRNQERIVDVAGPGGWNDPDMLVIGNFGLSWDQQVTQMALWAIMAAPLFMSNDLRHISPQAKALLQDKDVIAINQDPLGKQGYQLRKGDNFEVWERPLSGDAWAVAIINRQEIGGPRSYTIPVASLGKGVACNPACFITQLLPVKRQLGFYNWTSRLKSHINPTGTVLLQLENTMQMSLKDLL
# modifications: Synthetic Polypeptide sequence of Variant No. 404 of mature Human GLA
# B4: 362 (protein)
# chain: LDNGLARTPTMGWLHWERFMCNLDCQEEPDSCISEKLFMEMAECMVSEGWKDAGYEYLCIDDCWMAPQRDSEGRLQADPQRFPHGIRQLANYVHSKGLKLGIYADVGNKTCAGFPGSFGYYDIDAQTFADWGVDLLKFDGCYCDSLENLADGYKHMSLALNRTGRSIVYSCEWPLYMWPFQKPNYTEIRQYCNHWRNFADIDDSWKSIKSILDWTSRNQERIVDVAGPGGWNDPDMLVIGNFGLSWDQQVTQMALWAIMAAPLFMSNDLRHISPQAKALLQDKDVIAINQDPLGKQGYQLRKGDNFEVWERPLSGDAWAVAIINRQEIGGPRSYTIPVASLGKGVACNPACFITQLLPVKRQLGFYNWTSRLKSHINPTGTVLLQLENTMQMSLKDLL
# modifications: Synthetic Polypeptide sequence of Variant No. 362 of mature Human GLA
# B5: 406 (protein)
# chain: LDNGLARTPTMGWLHWERFMCNLDCQEEPDSCISEKLFMEMAERMVSEGWKDAGYEYLCIDDCWMAPQRDSEGRLQADPQRFPHGIRQLANYVHSKGLKLGIYADVGNKTCAGFPGSFGYYDIDAQTFADWGVDLLKFDGCYCDSLENLADGYKHMSLALNKTGRSIVYSCEWPLYMWPFQKPNYTEIRQYCNHWRNFADIDDSWKSIKSILDWTSRNQERIVDVAGPGGWNDPDMLVIGNFGLSWDQQVTQMALWAIMAAPLFMSNDLRHISPQAKALLQDKDVIAINQDPLGKQGYQLRKGDNFEVWERPLSGDAWAVAIINRQEIGGPRSYTIPVASLGKGVACNPACFITQLLPVKRQLGFYNWTSRLKSHINPTGTVLLQLENTMQMSLKDLL
# modifications: Synthetic Polypeptide sequence of Variant No. 406 of mature Human GLA
# B6: 405 (protein)
# chain: LDNGLARTPTMGWLHWERFMCNLDCQEEPDSCISEKLFMEMAERMVSEGWKDAGYEYLCIDDCWMAPQRDSEGRLQADPQRFPHGIRQLANYVHSKGLKLGIYADVGNKTCAGFPGSFGYYDIDAQTFADWGVDLLKFDGCYCDSLENLADGYKHMSEALNRTGRSIVYSCEWPLYMWPFQKPNYTEIRQYCNHWRNFADIDDSWKSIKSILDWTSRNQERIVDVAGPGGWNDPDMLVIGNFGLSWDQQVTQMALWAIMAAPLFMSNDLRHISPQAKALLQDKDVIAINQDPLGKQGYQLRKGDNFEVWERPLSGDAWAVAIINRQEIGGPRSYTIPVASLGKGVACNPACFITQLLPVKRQLGFYNWTSRLKSHINPTGTVLLQLENTMQMSLKDLL
# modifications: Synthetic Polypeptide sequence of Variant No. 405 of mature Human GLA
# Columns and labels:
# Type in all cases: biochemical
# [1] = HTP-analysis of supernatants pretreated with base (MUGal hydrolysis); conditions: activity of the variant/activity of Rd4BB (SEQ ID NO: 15); challenge at pH 9.65
# Outline: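 GLA variants were secreted by transformed INVSc1 yeast grown 66-84 h at 30° C. Supernatants were exposed to neutral-to-basic buffers (pH 7.0-9.7) at 37° C for 1-18 h, then assayed with MUGal in acidic citrate/McIlvaine buffer, with fluorescence read after quenching.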
# [2] = HTP-analysis of yeast culture supernatants, no challenge (MUGal hydrolysis); conditions: activity of the variant/activity of Rd4BB (SEQ ID NO: 15)
# Outline: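 GLA variants were expressed in INVSc1 yeast grown in SD-Ura broth with glucose at 30° C., and culture supernatants were collected after 66-84 h. Supernatant was mixed with McIlvaine buffer pH 4.8 and MUGal (2 mM stock) in 50 mM citrate, 200 mM KCl, pH 4.6, incubated at 37° C. for 30-180 minutes, then quenched with sodium carbonate.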
# [3] = HTP-analysis of supernatants pretreated with acid (MUGal hydrolysis); conditions: activity of the variant/activity of Rd4BB (SEQ ID NO: 15); challenge at pH 3.7
# Outline: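 GLA variants were secreted from INVSc1 yeast grown 66-84 h at 30° C. in SD-Ura with 2% glucose; supernatants were mixed with McIlvaine buffer pH 3.3-4.3 and held at 37° C. for 1-3 h. Residual activity on MUGal at pH 4.8 was then measured by fluorescence.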
Molecule,Relative Activity of GLA Variants After Challenge at pH 9.65 [1],Relative Activity of GLA Variants After No Challenge (NC) [2],Relative Activity of GLA Variants After Challenge at pH 3.7 [3]
B1,+ (0.5 to 1.5 relative activity over Rd4BB (SEQ ID NO: 15)),+ (0.5 to 1.5 relative activity over Rd4BB (SEQ ID NO: 15)),+ (0.5 to 1.5 relative activity over Rd4BB (SEQ ID NO: 15))
B2,− (<0.5 relative activity over Rd4BB (SEQ ID NO: 15)),+ (0.5 to 1.5 relative activity over Rd4BB (SEQ ID NO: 15)),+ (0.5 to 1.5 relative activity over Rd4BB (SEQ ID NO: 15))
B3,− (<0.5 relative activity over Rd4BB (SEQ ID NO: 15)),+ (0.5 to 1.5 relative activity over Rd4BB (SEQ ID NO: 15)),+ (0.5 to 1.5 relative activity over Rd4BB (SEQ ID NO: 15))
B4,+ (0.5 to 1.5 relative activity over Rd4BB (SEQ ID NO: 15)),+ (0.5 to 1.5 relative activity over Rd4BB (SEQ ID NO: 15)),+ (0.5 to 1.5 relative activity over Rd4BB (SEQ ID NO: 15))
B5,+ (0.5 to 1.5 relative activity over Rd4BB (SEQ ID NO: 15)),+ (0.5 to 1.5 relative activity over Rd4BB (SEQ ID NO: 15)),+ (0.5 to 1.5 relative activity over Rd4BB (SEQ ID NO: 15))
B6,+ (0.5 to 1.5 relative activity over Rd4BB (SEQ ID NO: 15)),+ (0.5 to 1.5 relative activity over Rd4BB (SEQ ID NO: 15)),++ (>1.5 to 2.5 relative activity over Rd4BB (SEQ ID NO: 15))
